Source: patent US20190263932A1

Assays:
[1] = molecular target: rat TrkA receptor expressed in transfected HEK293 cells (rat) (UniProt P35739); test: cell-based or functional assay
[2] = molecular target: recombinant human TrkA protein (human) (UniProt P04629); test: NGF-blocking ELISA on coated human TrkA, 100 nM btNGF; mAb 0.02 nM
[3] = molecular target: recombinant human TrkA protein (human) (UniProt P04629); test: NGF-blocking ELISA on coated human TrkA, 100 nM btNGF; mAb 5 nM
[4] = molecular target: recombinant human TrkA protein (human) (UniProt P04629); test: NGF-blocking ELISA on coated human TrkA, 100 nM btNGF; mAb 1.25 nM
[5] = molecular target: recombinant human TrkA protein (human) (UniProt P04629); test: NGF-blocking ELISA on coated human TrkA, 100 nM btNGF; mAb 20 nM
[6] = molecular target: recombinant human TrkA protein (human) (UniProt P04629); test: NGF-blocking ELISA on coated human TrkA, 100 nM btNGF; mAb 0.31 (printed pM, two-fold series gives nM)
[7] = molecular target: recombinant human TrkA protein (human) (UniProt P04629); test: NGF-blocking ELISA on coated human TrkA, 100 nM btNGF; mAb 0.08 nM
[8] = molecular target: recombinant human TrkA protein (human) (UniProt P04629); test: NGF-blocking ELISA on coated human TrkA, 100 nM btNGF; mAb 0.04 nM
[9] = molecular target: TrkA in rat brain, dorsal root ganglia and skin tissue (rat) (UniProt P35739); test: cell-based or functional assay
Chain of TrkA in rat brain, dorsal root ganglia and skin tissue (rat) (P35739 33-799): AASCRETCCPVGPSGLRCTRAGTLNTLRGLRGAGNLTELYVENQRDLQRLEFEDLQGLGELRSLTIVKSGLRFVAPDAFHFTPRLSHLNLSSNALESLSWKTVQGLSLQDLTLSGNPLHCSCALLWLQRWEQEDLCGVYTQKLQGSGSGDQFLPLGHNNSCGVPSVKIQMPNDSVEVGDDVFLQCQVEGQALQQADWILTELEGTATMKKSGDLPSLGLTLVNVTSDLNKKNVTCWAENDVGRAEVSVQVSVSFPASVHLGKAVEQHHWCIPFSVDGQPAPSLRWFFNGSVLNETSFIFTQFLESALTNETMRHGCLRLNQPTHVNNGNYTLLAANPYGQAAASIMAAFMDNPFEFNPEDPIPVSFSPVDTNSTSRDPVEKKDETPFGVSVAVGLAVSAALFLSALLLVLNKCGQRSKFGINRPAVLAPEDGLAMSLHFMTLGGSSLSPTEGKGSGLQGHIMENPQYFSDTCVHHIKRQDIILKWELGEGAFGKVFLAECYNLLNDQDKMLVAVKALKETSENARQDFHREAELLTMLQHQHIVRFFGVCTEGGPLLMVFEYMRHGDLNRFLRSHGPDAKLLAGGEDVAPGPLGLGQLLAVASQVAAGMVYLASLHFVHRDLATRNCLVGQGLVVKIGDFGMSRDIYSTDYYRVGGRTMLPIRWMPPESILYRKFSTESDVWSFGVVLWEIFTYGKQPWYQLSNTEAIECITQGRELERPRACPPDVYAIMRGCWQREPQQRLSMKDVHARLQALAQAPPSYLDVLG

[10] = molecular target: human TrkA receptor expressed in transfected 3T3 fibroblast cells (human) (UniProt P04629); test: cell-based or functional assay
Chain of human TrkA receptor expressed in transfected 3T3 fibroblast cells (human) (P04629 33-796): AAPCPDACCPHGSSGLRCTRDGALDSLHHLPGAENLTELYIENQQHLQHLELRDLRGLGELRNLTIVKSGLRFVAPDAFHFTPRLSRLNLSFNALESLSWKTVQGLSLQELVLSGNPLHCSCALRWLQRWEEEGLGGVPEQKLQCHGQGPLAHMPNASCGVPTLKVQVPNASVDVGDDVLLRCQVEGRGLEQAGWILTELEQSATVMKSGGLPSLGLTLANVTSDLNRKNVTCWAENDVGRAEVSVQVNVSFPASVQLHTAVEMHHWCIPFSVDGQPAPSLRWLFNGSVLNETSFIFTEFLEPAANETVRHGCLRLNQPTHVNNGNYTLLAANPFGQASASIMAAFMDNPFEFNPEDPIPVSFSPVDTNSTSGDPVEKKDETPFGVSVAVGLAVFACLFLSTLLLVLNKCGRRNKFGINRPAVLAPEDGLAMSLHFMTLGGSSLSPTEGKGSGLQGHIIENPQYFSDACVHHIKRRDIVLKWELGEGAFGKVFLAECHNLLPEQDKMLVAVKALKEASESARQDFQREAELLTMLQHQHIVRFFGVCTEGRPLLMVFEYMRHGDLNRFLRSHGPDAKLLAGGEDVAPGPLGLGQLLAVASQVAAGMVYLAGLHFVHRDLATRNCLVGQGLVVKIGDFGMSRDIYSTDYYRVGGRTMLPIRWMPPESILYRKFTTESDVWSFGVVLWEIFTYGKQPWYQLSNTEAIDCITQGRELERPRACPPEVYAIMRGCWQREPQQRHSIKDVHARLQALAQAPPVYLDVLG

[11] = molecular target: recombinant human TrkA protein (human) (UniProt P04629); test: NGF-blocking ELISA on coated human TrkA, 100 nM btNGF; mAb 10 nM
[12] = molecular target: recombinant human TrkA protein (human) (UniProt P04629); test: NGF-blocking ELISA on coated human TrkA, 100 nM btNGF; mAb 0.63 nM
[13] = molecular target: recombinant human TrkA protein (human) (UniProt P04629); test: NGF-blocking ELISA on coated human TrkA, 100 nM btNGF; mAb 2.5 nM
[14] = molecular target: recombinant human TrkA protein (human) (UniProt P04629); test: NGF-blocking ELISA on coated human TrkA, 100 nM btNGF; mAb 0.16 nM

Chain of rat TrkA receptor expressed in transfected HEK293 cells (rat) (P35739 33-799): as the sequence (P35739 33-799) above
Chain of rat β-NGF (P25427 122-241 limits assumed): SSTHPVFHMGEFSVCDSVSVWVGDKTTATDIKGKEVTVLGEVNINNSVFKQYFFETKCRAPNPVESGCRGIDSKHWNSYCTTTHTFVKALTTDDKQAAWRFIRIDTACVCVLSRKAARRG
Chain of recombinant human TrkA protein (human) (P04629 other isoform, or with tags, fused parts or gaps limits assumed): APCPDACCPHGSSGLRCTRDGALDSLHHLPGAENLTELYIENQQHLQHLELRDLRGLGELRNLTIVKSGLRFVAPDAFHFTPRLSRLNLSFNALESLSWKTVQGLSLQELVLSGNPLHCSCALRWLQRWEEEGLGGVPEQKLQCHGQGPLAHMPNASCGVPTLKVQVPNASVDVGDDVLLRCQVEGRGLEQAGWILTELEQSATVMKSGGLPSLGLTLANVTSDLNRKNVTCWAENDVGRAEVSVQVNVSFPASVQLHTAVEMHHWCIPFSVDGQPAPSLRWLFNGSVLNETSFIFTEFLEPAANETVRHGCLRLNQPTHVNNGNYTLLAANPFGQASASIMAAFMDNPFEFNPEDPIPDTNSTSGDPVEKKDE

Row | Substance | Absorbance 450 nm [2] | Absorbance 450 nm [3] | Absorbance 450 nm [4] | Absorbance 450 nm [5] | Absorbance 450 nm [6] | Absorbance 450 nm [7] | Absorbance 450 nm [8] | Absorbance 450 nm [11] | Absorbance 450 nm [12] | Absorbance 450 nm [13] | Absorbance 450 nm [14] | further results
1 | rat β-NGF (from UniProt P25427 122-241) (ligand) | – | – | – | – | – | – | – | – | – | – | – | pTrkA counts per second, 10 ug/mL NGF alone (mAb A column) (counts per second) [1]: 2.13e+06; pTrkA counts per second, 10 ug/mL NGF alone (mAb B column) (counts per second) [1]: 4.29e+06; pTrkA counts per second, 10 ug/mL NGF alone (mAb C column) (counts per second) [1]: 2.81e+06; pTrkA counts per second, 10 ug/mL NGF alone (mAb D column) (counts per second) [1]: 3.25e+06; pTrkA counts per second, 10 ug/mL NGF alone (mAb E column) (counts per second) [1]: 2.76e+06
2 | IgG4 isotype control antibody | 1.13 | 1.08 | 1.03 | 1.12 | 1.14 | 1.14 | 1.15 | 1.11 | 1.13 | 1.07 | 1.13 | pTrkA counts per second, DRG, NGF stimulated, 10 mg/kg SC (counts per second) [9]: 483000; pTrkA counts per second, DRG, baseline, 10 mg/kg SC (counts per second) [9]: 109000; pTrkA counts per second, brain, NGF stimulated, 10 mg/kg SC (counts per second) [9]: 507000; pTrkA counts per second, brain, baseline, 10 mg/kg SC (counts per second) [9]: 70600; pTrkA counts per second, skin, NGF stimulated, 10 mg/kg SC (counts per second) [9]: 33300; pTrkA counts per second, skin, baseline, 10 mg/kg SC (counts per second) [9]: 14500; pTrkA counts per second, +mAb 1 hr (1 uM), no NGF (counts per second) [10]: 28400; pTrkA counts per second, +mAb 24 hr (1 uM), no NGF (counts per second) [10]: 28700; pTrkA counts per second, NGF + mAb 1 hr (1 uM) (counts per second) [10]: 238000; pTrkA counts per second, NGF + mAb 24 hr (1 uM) (counts per second) [10]: 290000
3 | IgG1 isotype control antibody | 1.14 | 1.1 | 1.04 | 1.13 | 1.19 | 1.16 | 1.1 | 0.97 | 1.14 | 1.17 | 1.12 | –
